Molecular target: the molecule itself

B1: WDR26 (subunit of the recombinant WDR26-CTLH E3) (natural protein, human, UniProt Q9H7D7 1-661, looked up)
chain: MQANGAGGGGGGGGGGGGGGGGGGGQGQTPELACLSAQNGESSPSSSSSAGDLAHANGLLPSAPSAASNNSNSLNVNNGVPGGAAAASSATVAAASATTAASSSLATPELGSSLKKKKRLSQSDEDVIRLIGQHLNGLGLNQTVDLLMQESGCRLEHPSATKFRNHVMEGDWDKAENDLNELKPLVHSPHAIVVRGALEISQTLLGIIVRMKFLLLQQKYLEYLEDGKVLEALQVLRCELTPLKYNTERIHVLSGYLMCSHAEDLRAKAEWEGKGTASRSKLLDKLQTYLPPSVMLPPRRLQTLLRQAVELQRDRCLYHNTKLDNNLDSVSLLIDHVCSRRQFPCYTQQILTEHCNEVWFCKFSNDGTKLATGSKDTTVIIWQVDPDTHLLKLLKTLEGHAYGVSYIAWSPDDNYLVACGPDDCSELWLWNVQTGELRTKMSQSHEDSLTSVAWNPDGKRFVTGGQRGQFYQCDLDGNLLDSWEGVRVQCLWCLSDGKTVLASDTHQRIRGYNFEDLTDRNIVQEDHPIMSFTISKNGRLALLNVATQGVHLWDLQDRVLVRKYQGVTQGFYTIHSCFGGHNEDFIASGSEDHKVYIWHKRSELPIAELTGHTRTVNCVSWNPQIPSMMASASDDGTVRIWGPAPFIDHQNIEEECSSMDS
notes: WDR26, human, from human cDNA library (pFLN WDR26); The models 8QE8 and 8QBN exclude the CTLH-CRA^N domain of WDR26; also called WDR26 dimer
stoichiometry N: 2

Reference: publication PMC7616709 (Molecular cell, 2024)
